Earlier results, collected in paper PMC2289845.

Target: KIX KIX (UniProt P45481)
Chain of UniProt P45481 (P45481 586-665): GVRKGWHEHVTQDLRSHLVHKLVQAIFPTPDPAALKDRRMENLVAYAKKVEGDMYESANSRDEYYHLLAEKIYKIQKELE

- Kd: 1.3 µM
Substance: pKID KID (from UniProt P15337)
